Test results from the supplement of paper PMC9112550, “Optimization of the antimicrobial peptide Bac7 by deep mutational scanning” (BMC Biology, 2022).

The sequences below were run on Escherichia coli TOP10 (assay: shrunken log2 fold change of peptide-encoding DNA abundance (4.5 h post-induction vs induction); higher = less antimicrobial activity (less host growth inhibition)). Settings: time post-induction: 4.5 h; library: site-saturation at positions 5, 18, 19, 20.
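Further: peptides expressed intracellularly from a pBAD plasmid library in pooled LB shake-flask culture, induced with 0.3% L-arabinose, DNA abundance read by NGS, three biological replicates, DESeq2 with apeglm shrinkage.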

Q: How did the “shrunken log2 fold change” value turn out when RRIRNRPPRLPRPRPRPDVFPRP was run?
A: -0.199

Q: With RRIRFRPPRLPRPRPRPKYKPRP as the sequence, how does the “shrunken log2 fold change” value read?
A: -0.63

Q: With RRIRHRPPRLPRPRPRPINYPRP as the sequence, how does the “shrunken log2 fold change” value read?
A: -0.248

Q: RRIRFRPPRLPRPRPRPETNPRP was tested. Which “shrunken log2 fold change” value did it give?
A: 0.127

Q: Which “shrunken log2 fold change” value does the source give for RRIRYRPPRLPRPRPRPPVPPRP here?
A: 0.486

Q: RRIRWRPPRLPRPRPRPCCHPRP was tested. Which “shrunken log2 fold change” value did it give?
A: -0.169

Q: RRIRVRPPRLPRPRPRPQMDPRP was tested. Which “shrunken log2 fold change” value did it give?
A: -0.297

Q: With RRIRKRPPRLPRPRPRPLMQPRP as the sequence, how does the “shrunken log2 fold change” value read?
A: -0.134

Q: For RRIRCRPPRLPRPRPRPRSCPRP, which “shrunken log2 fold change” value is on record?
A: -0.159

Q: With RRIRVRPPRLPRPRPRPDHGPRP as the sequence, how does the “shrunken log2 fold change” value read?
A: -0.0218

Q: RRIRGRPPRLPRPRPRPHQVPRP was tested. Which “shrunken log2 fold change” value did it give?
A: 0.078

Q: With RRIRIRPPRLPRPRPRPFQGPRP as the sequence, how does the “shrunken log2 fold change” value read?
A: 0.0801

Q: RRIRHRPPRLPRPRPRPSNGPRP was tested. Which “shrunken log2 fold change” value did it give?
A: -0.605

Q: With RRIRQRPPRLPRPRPRPYQRPRP as the sequence, how does the “shrunken log2 fold change” value read?
A: -0.52

Q: RRIRSRPPRLPRPRPRPDFLPRP was tested. Which “shrunken log2 fold change” value did it give?
A: -0.0689

Q: For RRIRNRPPRLPRPRPRPHCCPRP, which “shrunken log2 fold change” value is on record?
A: -0.215

Q: RRIRKRPPRLPRPRPRPGFMPRP was tested. Which “shrunken log2 fold change” value did it give?
A: 0.184

Q: With RRIRQRPPRLPRPRPRPGGLPRP as the sequence, how does the “shrunken log2 fold change” value read?
A: 0.28

Q: How did the “shrunken log2 fold change” value turn out when RRIRNRPPRLPRPRPRPGWNPRP was run?
A: 0.324

Q: How did the “shrunken log2 fold change” value turn out when RRIRDRPPRLPRPRPRPLQQPRP was run?
A: 0.104

Q: How did the “shrunken log2 fold change” value turn out when RRIRPRPPRLPRPRPRPNPNPRP was run?
A: 0.367

Q: How did the “shrunken log2 fold change” value turn out when RRIRYRPPRLPRPRPRPLFEPRP was run?
A: -0.414

Q: RRIRHRPPRLPRPRPRPQQIPRP was tested. Which “shrunken log2 fold change” value did it give?
A: -0.0193

Q: For RRIRIRPPRLPRPRPRPMHIPRP, which “shrunken log2 fold change” value is on record?
A: -0.417

Q: For RRIRMRPPRLPRPRPRPSVPPRP, which “shrunken log2 fold change” value is on record?
A: -0.0568

Q: Which “shrunken log2 fold change” value does the source give for RRIRFRPPRLPRPRPRPCQAPRP here?
A: -0.0302

Q: With RRIRDRPPRLPRPRPRPHQWPRP as the sequence, how does the “shrunken log2 fold change” value read?
A: 0.031

Q: Which “shrunken log2 fold change” value does the source give for RRIRNRPPRLPRPRPRPNKWPRP here?
A: -0.155

Q: For RRIRPRPPRLPRPRPRPHEYPRP, which “shrunken log2 fold change” value is on record?
A: -0.25

Q: For RRIRDRPPRLPRPRPRPSLRPRP, which “shrunken log2 fold change” value is on record?
A: 0.188

Q: RRIRIRPPRLPRPRPRPPMPPRP was tested. Which “shrunken log2 fold change” value did it give?
A: -0.0926

Q: RRIRMRPPRLPRPRPRPHRHPRP was tested. Which “shrunken log2 fold change” value did it give?
A: -0.344

Q: For RRIRQRPPRLPRPRPRPDLYPRP, which “shrunken log2 fold change” value is on record?
A: -0.105

Q: For RRIRSRPPRLPRPRPRPSFEPRP, which “shrunken log2 fold change” value is on record?
A: 0.0257

Q: Which “shrunken log2 fold change” value does the source give for RRIRMRPPRLPRPRPRPWSVPRP here?
A: -0.0283

Q: RRIRLRPPRLPRPRPRPEFLPRP was tested. Which “shrunken log2 fold change” value did it give?
A: -0.108

Q: With RRIRWRPPRLPRPRPRPTAAPRP as the sequence, how does the “shrunken log2 fold change” value read?
A: 1.65

Q: For RRIRSRPPRLPRPRPRPDPTPRP, which “shrunken log2 fold change” value is on record?
A: 0.035

Q: Which “shrunken log2 fold change” value does the source give for RRIRHRPPRLPRPRPRPKMFPRP here?
A: -0.0772

Q: With RRIRSRPPRLPRPRPRPTFTPRP as the sequence, how does the “shrunken log2 fold change” value read?
A: -0.269

Q: RRIRCRPPRLPRPRPRPHAMPRP was tested. Which “shrunken log2 fold change” value did it give?
A: -0.145

Q: Which “shrunken log2 fold change” value does the source give for RRIRSRPPRLPRPRPRPAMFPRP here?
A: -0.0843

Q: With RRIRYRPPRLPRPRPRPANYPRP as the sequence, how does the “shrunken log2 fold change” value read?
A: -0.0328

Q: With RRIRKRPPRLPRPRPRPHKWPRP as the sequence, how does the “shrunken log2 fold change” value read?
A: -0.0776

Q: RRIRVRPPRLPRPRPRPSDTPRP was tested. Which “shrunken log2 fold change” value did it give?
A: -0.54

Q: For RRIRFRPPRLPRPRPRPMEDPRP, which “shrunken log2 fold change” value is on record?
A: -0.015

Q: For RRIRVRPPRLPRPRPRPFQRPRP, which “shrunken log2 fold change” value is on record?
A: 0.0825

Q: RRIRMRPPRLPRPRPRPMGKPRP was tested. Which “shrunken log2 fold change” value did it give?
A: 0.0275

Q: RRIRGRPPRLPRPRPRPNPEPRP was tested. Which “shrunken log2 fold change” value did it give?
A: 0.511

Q: With RRIRVRPPRLPRPRPRPTTPPRP as the sequence, how does the “shrunken log2 fold change” value read?
A: 0.347

Q: Which “shrunken log2 fold change” value does the source give for RRIRWRPPRLPRPRPRPLIHPRP here?
A: -0.0681

Q: With RRIRDRPPRLPRPRPRPAAMPRP as the sequence, how does the “shrunken log2 fold change” value read?
A: 1.32

Q: RRIRVRPPRLPRPRPRPGSMPRP was tested. Which “shrunken log2 fold change” value did it give?
A: -0.00131

Q: With RRIRKRPPRLPRPRPRPMCSPRP as the sequence, how does the “shrunken log2 fold change” value read?
A: -0.0421

Q: Which “shrunken log2 fold change” value does the source give for RRIRMRPPRLPRPRPRPFWWPRP here?
A: 0.158

Q: RRIRYRPPRLPRPRPRPPVFPRP was tested. Which “shrunken log2 fold change” value did it give?
A: 0.0494

Q: Which “shrunken log2 fold change” value does the source give for RRIRARPPRLPRPRPRPHGNPRP here?
A: -0.0231

Q: For RRIRTRPPRLPRPRPRPPWYPRP, which “shrunken log2 fold change” value is on record?
A: -0.166

Q: With RRIRLRPPRLPRPRPRPHGTPRP as the sequence, how does the “shrunken log2 fold change” value read?
A: 0.0824

Q: With RRIRKRPPRLPRPRPRPFQYPRP as the sequence, how does the “shrunken log2 fold change” value read?
A: -0.284

Q: Which “shrunken log2 fold change” value does the source give for RRIRTRPPRLPRPRPRPGPGPRP here?
A: 0.484

Q: RRIRHRPPRLPRPRPRPFKAPRP was tested. Which “shrunken log2 fold change” value did it give?
A: -0.0378

Q: RRIRGRPPRLPRPRPRPVSTPRP was tested. Which “shrunken log2 fold change” value did it give?
A: 0.691

Q: Which “shrunken log2 fold change” value does the source give for RRIRWRPPRLPRPRPRPILHPRP here?
A: 0.0591

Q: For RRIRYRPPRLPRPRPRPEGRPRP, which “shrunken log2 fold change” value is on record?
A: 0.172

Q: For RRIRLRPPRLPRPRPRPMKNPRP, which “shrunken log2 fold change” value is on record?
A: -0.303

Q: RRIRIRPPRLPRPRPRPGRCPRP was tested. Which “shrunken log2 fold change” value did it give?
A: -0.0543

Q: RRIRARPPRLPRPRPRPHCVPRP was tested. Which “shrunken log2 fold change” value did it give?
A: 0.0669

Q: For RRIRERPPRLPRPRPRPENAPRP, which “shrunken log2 fold change” value is on record?
A: -0.00683

Q: How did the “shrunken log2 fold change” value turn out when RRIRFRPPRLPRPRPRPDRWPRP was run?
A: 0.0556

Q: With RRIRRRPPRLPRPRPRPFLDPRP as the sequence, how does the “shrunken log2 fold change” value read?
A: 0.0172

Q: How did the “shrunken log2 fold change” value turn out when RRIRTRPPRLPRPRPRPKVNPRP was run?
A: -0.168

Q: For RRIRRRPPRLPRPRPRPRSVPRP, which “shrunken log2 fold change” value is on record?
A: 0.234

Q: For RRIRYRPPRLPRPRPRPVNCPRP, which “shrunken log2 fold change” value is on record?
A: 0.0039

Q: For RRIRRRPPRLPRPRPRPCYIPRP, which “shrunken log2 fold change” value is on record?
A: -0.205

Q: RRIRSRPPRLPRPRPRPLKTPRP was tested. Which “shrunken log2 fold change” value did it give?
A: -0.0127

Q: RRIRMRPPRLPRPRPRPNGYPRP was tested. Which “shrunken log2 fold change” value did it give?
A: 0.0495

Q: Which “shrunken log2 fold change” value does the source give for RRIRHRPPRLPRPRPRPVPEPRP here?
A: 0.143

Q: With RRIRLRPPRLPRPRPRPWDFPRP as the sequence, how does the “shrunken log2 fold change” value read?
A: -0.00136

Q: For RRIRRRPPRLPRPRPRPYDVPRP, which “shrunken log2 fold change” value is on record?
A: -0.0964

Q: With RRIRDRPPRLPRPRPRPKVYPRP as the sequence, how does the “shrunken log2 fold change” value read?
A: -0.0329

Q: Which “shrunken log2 fold change” value does the source give for RRIRMRPPRLPRPRPRPHLRPRP here?
A: 0.0326

Q: RRIRHRPPRLPRPRPRPTCMPRP was tested. Which “shrunken log2 fold change” value did it give?
A: -0.184

Q: How did the “shrunken log2 fold change” value turn out when RRIRYRPPRLPRPRPRPNKKPRP was run?
A: -0.298

Q: How did the “shrunken log2 fold change” value turn out when RRIRMRPPRLPRPRPRPTVMPRP was run?
A: 0.563

Q: Which “shrunken log2 fold change” value does the source give for RRIRQRPPRLPRPRPRPFLDPRP here?
A: -0.372

Q: RRIRKRPPRLPRPRPRPGGWPRP was tested. Which “shrunken log2 fold change” value did it give?
A: 0.62

Q: How did the “shrunken log2 fold change” value turn out when RRIRHRPPRLPRPRPRPFDAPRP was run?
A: 0.00493

Q: With RRIRHRPPRLPRPRPRPGGFPRP as the sequence, how does the “shrunken log2 fold change” value read?
A: -0.127

Q: How did the “shrunken log2 fold change” value turn out when RRIRSRPPRLPRPRPRPCVAPRP was run?
A: 0.0901

Q: How did the “shrunken log2 fold change” value turn out when RRIRNRPPRLPRPRPRPTSFPRP was run?
A: 0.00362

Q: With RRIRKRPPRLPRPRPRPFNTPRP as the sequence, how does the “shrunken log2 fold change” value read?
A: -0.0902

Q: With RRIRTRPPRLPRPRPRPRSLPRP as the sequence, how does the “shrunken log2 fold change” value read?
A: 0.19

Q: With RRIRQRPPRLPRPRPRPCRDPRP as the sequence, how does the “shrunken log2 fold change” value read?
A: 0.0161

Q: For RRIRGRPPRLPRPRPRPDSIPRP, which “shrunken log2 fold change” value is on record?
A: 0.495

Q: With RRIRFRPPRLPRPRPRPGFRPRP as the sequence, how does the “shrunken log2 fold change” value read?
A: 0.0855

Q: With RRIRIRPPRLPRPRPRPAPDPRP as the sequence, how does the “shrunken log2 fold change” value read?
A: 0.248

Q: For RRIRARPPRLPRPRPRPREIPRP, which “shrunken log2 fold change” value is on record?
A: 0.865

Q: Which “shrunken log2 fold change” value does the source give for RRIRKRPPRLPRPRPRPPVYPRP here?
A: 0.387

Q: Which “shrunken log2 fold change” value does the source give for RRIRYRPPRLPRPRPRPKAKPRP here?
A: 0.0915

Q: RRIRIRPPRLPRPRPRPKFCPRP was tested. Which “shrunken log2 fold change” value did it give?
A: -0.639

Q: For RRIRRRPPRLPRPRPRPWWRPRP, which “shrunken log2 fold change” value is on record?
A: 0.463

Q: Which “shrunken log2 fold change” value does the source give for RRIRSRPPRLPRPRPRPAKYPRP here?
A: -0.215

Q: For RRIRIRPPRLPRPRPRPDSDPRP, which “shrunken log2 fold change” value is on record?
A: -0.0273

Q: With RRIRNRPPRLPRPRPRPPFQPRP as the sequence, how does the “shrunken log2 fold change” value read?
A: 0.0529

Q: With RRIRDRPPRLPRPRPRPVFRPRP as the sequence, how does the “shrunken log2 fold change” value read?
A: 0.18

Q: For RRIRGRPPRLPRPRPRPTQAPRP, which “shrunken log2 fold change” value is on record?
A: 1.37

Q: With RRIRRRPPRLPRPRPRPQTYPRP as the sequence, how does the “shrunken log2 fold change” value read?
A: -0.0324

Q: With RRIRARPPRLPRPRPRPSINPRP as the sequence, how does the “shrunken log2 fold change” value read?
A: -0.308
